# According to patent US11130803B2, “Isoform-selective TGFβ1 inhibitors and use thereof” (Scholar Rock, Inc., priority 2018, dated 2021):
# B1: decorin: proteoglycan abundant in skeletal muscle that inhibits TGFβ activity (protein, UniProt P07585 31-359, looked up)
# Decorin: DEASGIGPEVPDDRDFEPSLGPVCPFRCQCHLRVVQCSDLGLDKVPKDLPPDTTLLDLQNNKITEIKDGDFKNLKNLHALILVNNKISKVSPGAFTPLVKLERLYLSKNQLKELPEKMPKTLQELRAHENEITKVRKVTFNGLNQMIVIELGTNPLKSSGIENGAFQGMKKLSYIRIADTNITSIPQGLPPSLTELHLDGNKISRVDAASLKGLNNLAKLGLSFNSISAVDNGSLANTPHLRELHLDNNKLTRVPGGLAEHKYIQVVYLHNNNISVVGSSDFCPPGHNTKKASYSGVSLFSNPVQYWEIQPSTFRCVYVRSAIQLGNYK
# B2: Ab6-mIgG1: chimeric antibody with the human V domains of Ab6 fused to mouse IgG1/kappa constant domains (protein)
# heavy chain: EVQLVESGGGLVQPGGSLRLSCTASGFTFSSFSMDWVRQAPGKGLEWVSYISPSADTIYYADSVKGRFTISRDNAKNTLYLQMNSLRAEDTAVYYCARGVLDYGDMLMPWGQGTLVTVSS
# light chain: DIQMTQSPSSLSASVGDRVTITCQASQDITNYLNWYQQKPGKAPKLLIYDASNLETGVPSRFSGSGSGTDFTFTISSLQPEDIATYYCQQADNHPPWTFGGGTKVEIK
# Experiments:
# non-diseased rat BAL = conditions: cited from earlier work
# human patients = conditions: in vivo; cited from earlier work
# [1] = human, in vivo; cited from earlier work
# mdx mice = conditions: cited from earlier work
# [2] = system: MBT2 tumors, intratumoral immune cells; assay: MBT2 tumor immune contexture (flow cytometry, IHC, qPCR); conditions: mouse, in vivo
# Excerpt: To study the immune effects of anti-PD-1 or AB6-mIgG1 treatment as single agents or in combination, MBT-2 tumors were harvested from mice 10 days after treatment initiation and then subjected to immunohistochemical and flow cytometry analyses of select immune cell markers. […] The relevance of this increase in Treg cells is unclear given the significant anti-tumor effects observed with combination treatment. […] This appears to be due to selective reduction in CD11b+CD206+ and CD11b+Gr1+ subpopulations, which correspond to immunosuppressive M2-like macrophages and myeloid-derived suppressor cells (MDSC), respectively. Collectively, the representation of these two populations of cells is reduced from an average of 47% of the CD45+ cell population to 14% after combination treatment (FIG. 34B).
# Each study group contained 12 mice with MBT2 tumors as described herein. Ab6-treatment group received the antibody weekly, on day 1 and day 8, at 10 mg/kg. […]
# Tumor-associated immune cell subsets were also analyzed by tumor flow cytometry in MBT-2 tumors. […] Flow cytometry was performed on a Attune NxT (ThermoFisher) and analyzed with FlowJo (BD Bioscience).
# For immunohistochemical analysis, tumors from six animals were cut in halves and fixed. […] FIG. 36E provides the quantitation of the IHC data, shown as % of CD8-positive cells of total nuclei. […]
molecule,measurement,setting,value
c1ccc(-c2nn3c(c2-c2ccnc4cc(OCCN5CCOCC5)ccc24)CCC3)nc1 [LY2109761],TGFβ downstream tonic signaling,non-diseased rat BAL,inhibit TGFβ downstream tonic signaling
GC1008: human analog of 1D11; pan-TGFβ antibody,previously reported adverse events,human patients,"leukocytosis (grade 3), fatigue (grade 3), hypoxia (grade 3), asystole (grade 5), leukopenia (grade 1), recurrent, transient, tender erythematous, nodular skin lesions, suppurative dermatitis, and herpes zoster"
same,Exposure: DN Cmax,[1],DN Cmax ~(350 ng/mL)mg (ng/mL)mg
same,Exposure: Half life,[1],Half life: 21.7 d
B1,muscle fibrosis,mdx mice,decreases muscle fibrosis
B2,phospho-Smad3 staining at tumor vascular endothelium (IHC),[2],much diminished
